Laboratory results published in US20260224446A1, “BIFUNCTIONAL PEPTIDES USEFUL FOR COLLAGEN INTRAFIBRILLAR MINERALIZATION” (University of Kansas, priority 2023, published 2026).

Assays:
[1] = biological target: T1, Type 1 rat tail collagen (Rattus norvegicus, UniProt P02454+P02466); assay: SEM/EDS of Ca-P deposits on peptide-incorporated collagen after ALP-driven mineralization; format: biochemical
T1 construct: Collagen Type 1 solution from rat tail (3 mg/mL, C3867, 95%) was purchased from Sigma-Aldrich; purchased Sigma-Aldrich C3867; host or cells: rat tail (tissue-derived)
T1 sequence (P02466 86-1125 limits assumed): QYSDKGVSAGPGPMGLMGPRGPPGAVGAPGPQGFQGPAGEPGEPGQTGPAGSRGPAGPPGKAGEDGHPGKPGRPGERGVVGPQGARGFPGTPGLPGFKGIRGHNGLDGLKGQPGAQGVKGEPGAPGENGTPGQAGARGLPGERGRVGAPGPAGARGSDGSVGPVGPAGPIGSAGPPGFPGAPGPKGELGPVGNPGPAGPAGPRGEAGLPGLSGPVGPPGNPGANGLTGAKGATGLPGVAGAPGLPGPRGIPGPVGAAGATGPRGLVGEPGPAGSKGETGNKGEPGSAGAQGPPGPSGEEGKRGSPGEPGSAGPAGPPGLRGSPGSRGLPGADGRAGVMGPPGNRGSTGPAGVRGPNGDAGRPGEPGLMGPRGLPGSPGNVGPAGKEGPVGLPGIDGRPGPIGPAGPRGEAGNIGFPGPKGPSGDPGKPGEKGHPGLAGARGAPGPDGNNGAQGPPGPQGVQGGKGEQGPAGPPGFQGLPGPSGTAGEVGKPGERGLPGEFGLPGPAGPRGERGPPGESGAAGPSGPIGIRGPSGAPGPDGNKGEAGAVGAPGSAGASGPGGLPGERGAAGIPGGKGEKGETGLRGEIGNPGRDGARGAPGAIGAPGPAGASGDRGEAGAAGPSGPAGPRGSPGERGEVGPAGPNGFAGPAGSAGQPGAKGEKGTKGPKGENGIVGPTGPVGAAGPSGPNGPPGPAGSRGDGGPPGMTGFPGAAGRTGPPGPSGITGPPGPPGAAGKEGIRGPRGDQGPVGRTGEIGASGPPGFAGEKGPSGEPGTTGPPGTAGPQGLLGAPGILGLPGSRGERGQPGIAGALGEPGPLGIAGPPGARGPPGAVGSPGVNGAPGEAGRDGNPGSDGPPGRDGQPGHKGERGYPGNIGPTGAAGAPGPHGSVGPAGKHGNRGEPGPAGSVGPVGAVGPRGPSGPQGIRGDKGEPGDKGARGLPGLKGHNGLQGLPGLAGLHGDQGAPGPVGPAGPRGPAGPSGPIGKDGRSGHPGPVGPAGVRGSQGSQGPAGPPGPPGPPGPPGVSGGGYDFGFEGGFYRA
T1 sequence (P02454 152-1207 limits assumed): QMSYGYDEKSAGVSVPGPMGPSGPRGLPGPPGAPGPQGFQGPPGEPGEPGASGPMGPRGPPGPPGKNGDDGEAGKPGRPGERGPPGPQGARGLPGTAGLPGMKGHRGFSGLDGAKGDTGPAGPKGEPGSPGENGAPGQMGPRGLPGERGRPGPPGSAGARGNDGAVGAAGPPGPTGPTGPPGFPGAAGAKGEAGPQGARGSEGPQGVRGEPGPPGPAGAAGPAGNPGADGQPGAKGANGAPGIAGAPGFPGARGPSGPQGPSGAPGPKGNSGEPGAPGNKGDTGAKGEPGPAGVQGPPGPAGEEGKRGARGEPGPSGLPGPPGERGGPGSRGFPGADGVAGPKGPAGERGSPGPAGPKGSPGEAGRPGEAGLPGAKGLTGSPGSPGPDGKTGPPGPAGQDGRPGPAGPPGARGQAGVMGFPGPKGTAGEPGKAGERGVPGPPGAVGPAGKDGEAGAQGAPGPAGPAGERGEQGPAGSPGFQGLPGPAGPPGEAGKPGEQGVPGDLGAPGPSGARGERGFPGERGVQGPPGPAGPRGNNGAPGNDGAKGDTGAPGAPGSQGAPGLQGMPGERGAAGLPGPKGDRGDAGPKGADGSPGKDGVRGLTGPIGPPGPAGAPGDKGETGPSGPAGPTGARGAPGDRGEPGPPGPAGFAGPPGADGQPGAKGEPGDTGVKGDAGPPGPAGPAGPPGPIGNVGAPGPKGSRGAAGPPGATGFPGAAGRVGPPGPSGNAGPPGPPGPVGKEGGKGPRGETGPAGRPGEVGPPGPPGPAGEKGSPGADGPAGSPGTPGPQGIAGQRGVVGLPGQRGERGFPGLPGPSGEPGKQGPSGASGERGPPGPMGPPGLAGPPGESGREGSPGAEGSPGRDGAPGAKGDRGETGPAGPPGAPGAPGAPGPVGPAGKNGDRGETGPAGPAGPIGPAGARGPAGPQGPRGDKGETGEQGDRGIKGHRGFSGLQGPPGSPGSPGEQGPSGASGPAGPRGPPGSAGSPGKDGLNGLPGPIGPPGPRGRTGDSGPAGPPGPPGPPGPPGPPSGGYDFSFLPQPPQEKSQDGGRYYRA
Protocol: (§1) Grade V1 round mica, 0.21 mm thick and 12 mm in diameter, was used as the substrate surface and mounted onto a 12 mm atomic force microscopy specimen disc using STKYDOT adhesive. In 1 mL of 3 mg/mL Type 1 rat tail collagen suspension, 50 nanomoles of peptide were added. The ratio of mass collagen to mass peptide ranged from 100 wt collagen: 1 wt peptide for single domains to 100 wt collagen: 3 wt peptide for the chimeric peptide. Once peptide was dissolved and gently mixed in the collagen suspension, 150 μL was drop-cast onto the substrate surface and left to self-assemble at 4° C. for 16 h.
(§2) ALP-driven mineralization was executed following the protocol discussed in Gungormus et al. (2008). The mineralization buffer prepared was composed of 24.4 Ca^2+ mM and 14.4 mM B-glycerophosphate made in 25 mM Tris-HCl buffer at pH 7.4, and 200 μL/well was added to a 24-well plate. Collagen-peptide samples were placed gently within the well to lay flat at the bottom. The mineralization reaction was initiated by adding FastAP (thermosensitive alkaline phosphatase), 1.4×10^−6 g/mL, and left to incubate at 37° C. for 20 min. The samples were then removed from the wells, gently rinsed in sterile-filtered water, and left to air dry overnight. Throughout this process the samples were handled in a horizontally flat manner to prevent disturbing the peptide-functionalized collagen layer on the surface of the substrate.
In order to examine initial intrafibrillar mineral formation and morphology and determine Ca/P ratios precipitated on the peptide-functionalized collagen surface, a Cold Field Emission Scanning […] Microscope (SEM, S-4700 model, Hitachi High-Tech America, Schaumburg, IL, USA) equipped with a silicon drift energy-dispersive detector (EDS, X-max, Oxford Instruments, Concord, MA, USA) was used via the Microscopy and Analytical Imaging Research Resource Core Laboratory (RRID:SCR_021801). Collagen-peptide samples were sputter-coated with 3 nm gold using a Quorum sputter coating system (Q150, Quorum, Laughton, East Sussex, UK). SEM imaging was completed at an acceleration voltage of 10 kV at ultra-high resolution operating mode and EDS measurements were made at 10 kV under normal operating mode to preserve the integrity of the collagen-peptide layer and prevent burning during signal capture. EDS analysis was performed through AZtec software (X-MaxN, Oxford Instruments, Concord, MA, USA).
The composition and morphology of the Ca—P deposits formed on collagen samples were examined using scanning electron microscopy (SEM) with energy dispersive X-ray analysis (EDS). […] The EDS results validated the finding of Ca—P mineral isomorphs on the peptide-incorporated collagen platforms. The calcium/phosphate ratios were calculated to examine compositional differences. […] Whereas collagen+ (CBP) and collagen+ (CBP-HABP1) had comparatively lower average Ca—P ratios at 1.30 and 1.25, respectively. These values are similar to the molar ratio of octacalcium phosphate, which is around 1.33, and amorphous calcium phosphate (ACP), which is roughly 1.50 [54-57].

[2] = biological target: T1, Type 1 rat tail collagen; assay: PeakForce-QNM AFM modulus mapping of peptide-functionalized collagen pre/post ALP-driven mineralization; details: peptide incorporated into collagen
Protocol: as §1, §2
(§3) A Bruker Multimode 8 HR scanning probe microscope (Bruker Nano Inc., Camarillo, CA, USA) was operated in peak force tapping mode with the capability of Quantitative Nanomechanics (PeakForce-QNM) in air mode conditions (24±2° C., 40%±5% RH). This advanced testing mode was used to examine the topographical and nanomechanical property changes of the collagen-peptide samples both before and after mineralization. Tapping mode etched silicon probes, type RTESPA 525-30 (Bruker Nano Inc., Camarillo, CA, USA) with a resonant frequency of about 518 kHz, were used to acquire images (1 μm×3 μm and 5 μm×5 μm) at scan rate of 0.5 Hz with 512 pixel/line resolution. The images of the samples were recorded using NanoScope 8.15 software and analyzed using NanoScope Analysis 2.0 software (Bruker Nano Inc., Camarillo, CA, USA).
Building on the observed effects of the chimeric peptide on the collagen, next examined was if there was a change on the mechanical properties of the collagen due to the peptide presence. Quantitative modulus mapping was executed via PeakForce-QNM AFM to observe the changes in the elastic modulus distribution on the surfaces. The elastic modulus was previously established to be derived by using the Derjaguin-Muller-Toropov (DMT) model, and is thus reported as the DMT modulus. […]

[3] = biological target: T1, Type 1 rat tail collagen; assay: Collagen fibril self-assembly with incorporated peptide, AFM topography fibril widths; details: peptide co-assembled with collagen (50 nanomoles in 1 mL of 3 mg/mL), drop-cast on mica
Protocol: as §1, §3
Building upon the conformational flexibility of the peptide, the CBP-HABP1 peptide was then studied for the assembly properties on the collagen fibrils on mica substrate using AFM topography image analysis. The images were acquired in tapping mode. Non-fibril features, indicated as intensity saturated regions on the surface, are acetic acid salt crystals from the evaporation of the solution in which the collagen was suspended. These features were excluded from image to prevent signal shadowing of the surface fibril assembly. […] Collagen+ (CBP-HABP1) fibrils were measured to be smaller than collagen-alone fibrils, resulting in a statistically significant difference. […]

[4] = biological target: T1, Type 1 rat tail collagen; assay: MicroXCT imaging of mineral formed within peptide-incorporated collagen after ALP-driven mineralization; format: biochemical; details: MicroXCT shaded surface display, 20-min ALP-driven mineralization
Protocol: as §1
ALP-driven mineralization was executed following the protocol discussed in Gungormus et al. (2008). The mineralization buffer prepared was composed of 24.4 Ca^2+ mM and 14.4 mM B-glycerophosphate made in 25 mM Tris-HCl buffer at pH 7.4, and 200 μL/well was added to a 24-well plate. […]
The microscale structure of the mineral formed within the peptide-incorporated collagen platform as a physical indicator of intrafibrillar mineralization, was observed using 3D X-ray microcomputed tomography (MicroXCT-400, Xradia Inc., Pleasanton, CA, USA). […] The 3D images were reconstructed using the XM Reconstructor 8.0 software and were analyzed from an orthogonal view using a TXM 3D Viewer under the […] surface display (SSD) mode (Xradia Inc., Pleasanton, CA, USA). […]

TKKLTLRTAPAMLPHHGA [CBP-HABP1]
average Ca—P ratio ([1]; EDS, initial mineral on peptide-incorporated collagen after 20 min ALP-driven mineralization): 1.25 | mineral formation morphology on SEM images ([1]; peptide-incorporated collagen after ALP-driven mineralization): more extensively branched columnar mineral growth as well as plate-like mineral growth | DMT (elastic) modulus ([2]; after 20 min ALP-driven mineralization): 5.83 GPa | DMT (elastic) modulus ([2]; pre-mineralization): 5.25 GPa | Mean fibril width [3]: 82.37 nm | void areas in collagen interior [4]: almost no void areas | density of mineralized collagen layer ([4]; versus collagen control): denser formation compared to ALP-based mineralized collagen samples
